How the values were obtained:
[1] = biological target: biotinylated avitag-labeled canine CTLA4 (dog, UniProt Q9XSI1, biotin (biotinylated avitag)); test: ELISA
[2] = biological target: feline CTLA4 of feline CD5+ leucocytes (Felis catus, endogenous; allele not …, UniProt Q9XSY7); test: flow cytometry on cells

Sequence of biotinylated avitag-labeled canine CTLA4 (Q9XSI1 36-161): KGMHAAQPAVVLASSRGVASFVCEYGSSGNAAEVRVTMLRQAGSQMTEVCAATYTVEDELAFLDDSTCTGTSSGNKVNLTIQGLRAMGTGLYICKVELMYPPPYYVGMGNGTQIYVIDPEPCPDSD

B1: A1 soluble canine anti-cCTLA4 scFv (scFv, V domains shown)
VH: EVQLVESGGDLVKPAGSLRLSCVASGFSFSSYAMNWVRQAPGKGLQWIAGINSGGSSTSHIDAIKGRFTISRDNAKNTLYLQMNSLRAEDTAVYYCAISNWAYWGQGTLVTVSS
VL: QAVLNQPASVSGSLGQRVTISCTGSSSDIGKSYVAWYQQLPGTGPRTLINVDGNRASGVPDRFSVSRSGNTATLTISGLQAEDEADYHCSSWDWSLHTYVFGSGTQLTIL
Question: Does B1 bind [1]?
Answer: binds

B2: A1mut2 fully canine IgGA (antibody, V domains shown)
VH: EVQLVETGGDLVKPGGSLRLSCVASGFSFSSYAMNWVRQAPEKGLQLVGGINSGGSSTYYTDAVKGRFTISRDNAKNTVYLQMNSLRAEDTAVYYCAISNWAYWGQGTLVTVSS
VL: QAVLNQPASVSGSLGQRVTISCTGSSSDIGKSYVAWYQQLPGTGPRTLINVDGNRASGVPDRFSVSRSGNTATLTISGLQAEDEADYHCSSWDWSLHTYVFGSGTQLTIL
Question: Does B2 bind [2]?
Answer: binds

— paper PMC8726733 (mAbs, 2021)
